Results published in US20230257453A1 (PROVIVA THERAPEUTICS HONG KONG, published 2023).
Substitutions are numbered along the chain they refer to. Names and notes keep the numbering of the source.

T1: denatured human collagen type III (human, UniProt P02461 154-1221, limits assumed)
T1 construct: Bought human collagen III (ab7535, Abcam), denatured at 99 C for 15 minutes and then kept on ice for 5 minutes; also called denatured human collagen III
T1 sequence: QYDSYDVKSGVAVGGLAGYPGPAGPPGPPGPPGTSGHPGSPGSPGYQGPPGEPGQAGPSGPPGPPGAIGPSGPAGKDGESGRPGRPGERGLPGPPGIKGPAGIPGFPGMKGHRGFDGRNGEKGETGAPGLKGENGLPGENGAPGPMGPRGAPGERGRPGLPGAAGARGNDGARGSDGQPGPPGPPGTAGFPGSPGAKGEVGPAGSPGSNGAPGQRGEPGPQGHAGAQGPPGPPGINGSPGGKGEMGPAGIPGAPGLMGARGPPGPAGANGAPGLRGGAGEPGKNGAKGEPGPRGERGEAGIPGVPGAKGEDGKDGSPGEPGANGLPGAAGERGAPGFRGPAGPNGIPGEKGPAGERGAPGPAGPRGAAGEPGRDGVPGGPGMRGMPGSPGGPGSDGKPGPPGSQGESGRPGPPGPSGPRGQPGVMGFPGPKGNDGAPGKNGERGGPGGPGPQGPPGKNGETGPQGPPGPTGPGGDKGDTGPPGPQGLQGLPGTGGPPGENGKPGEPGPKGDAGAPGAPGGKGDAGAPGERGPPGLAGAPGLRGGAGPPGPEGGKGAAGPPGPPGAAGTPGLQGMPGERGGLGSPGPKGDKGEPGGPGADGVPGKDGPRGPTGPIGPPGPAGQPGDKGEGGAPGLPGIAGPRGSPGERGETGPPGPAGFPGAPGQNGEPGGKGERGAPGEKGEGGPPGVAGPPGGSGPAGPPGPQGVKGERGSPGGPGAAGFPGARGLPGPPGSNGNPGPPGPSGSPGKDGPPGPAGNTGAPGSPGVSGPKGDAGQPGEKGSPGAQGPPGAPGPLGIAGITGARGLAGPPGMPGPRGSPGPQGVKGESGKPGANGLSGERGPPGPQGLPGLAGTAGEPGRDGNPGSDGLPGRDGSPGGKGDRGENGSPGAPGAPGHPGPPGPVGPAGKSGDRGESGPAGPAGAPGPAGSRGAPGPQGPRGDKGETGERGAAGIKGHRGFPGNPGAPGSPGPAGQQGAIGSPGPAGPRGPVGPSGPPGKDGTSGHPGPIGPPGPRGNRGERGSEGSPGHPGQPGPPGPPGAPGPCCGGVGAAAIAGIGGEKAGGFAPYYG

B1: P27152798 (antibody, human IgG1, kappa, L234A L235A, V domains shown)
VH: QVTLKESGPALVKPTQTLTLTCTFSGFSLSTPGMGVWWIRQPPGKALEWLADIWWDDNKYTNPSLKSRLTISKDTSKNQVVLTMTNMDPVDTATYYCARRANYGNPYYAQDYWGQGTTVTVSS
VL: DIVMTQTPLSLPVTPGEPASISCRSSQSIVHSNANTYLEWYLQKPGQSPQLLIYKVSNRFSGVPDRFSGSGSGTDFTLKISRVEAEDVGVYYCFQGSHVPWTFGQGTKVEIKR
notes: also called VH chain D3 / VL chain B7A
B2: P27122713 (antibody, human IgG1, kappa, L234A L235A, V domains shown)
VH: B1 VH with P32S, W37G, T61A
VL: B1 VL with A34G
notes: produced by transient transfection in Expi293 cells and purified on MabSelect SuRe; also called VH chain B7 / VL chain B7
B3: P27152716 (antibody, human IgG1, kappa, L234A L235A, V domains shown)
VH: B1 VH
VL: B1 VL with H31S, N33W, A34G
notes: produced by transient transfection in Expi293 cells and purified on MabSelect SuRe; also called VH chain D3 / VL chain D3

What follows are binders tested against T1, denatured human collagen type III (assay: ELISA, denatured collagen coated on plate, anti-human IgG peroxidase detection).
Method: ELISA analysis. The binding activity and specificity of purified antibodies were determined by ELISA. Human collagens I (ab7533, Abcam), III (ab7535, Abcam), IV (ab7536, Abcam), an V (ab7537, Abcam), and mouse collagens I (NBP2-62423, NOVUS) and IV (3410-010-02, R&D) were used in ELISA analysis. “Denatured” collagen samples were prepared by incubation of collagens samples at 99° C. for 15 minutes followed by incubation on ice for 5 minutes Microtiter plates were coated with native or denatured collagen protein overnight at 4° C. The next day, plates were washed with PBS and blocked with 3% non-fat dry milk in PBS or 1% BSA. Serially diluted antibodies were added for binding to the coated antigen. Bound antibodies were detected with peroxidase-conjugated anti-human IgG secondary antibody (Jackson ImmunoResearch).

Binding result, binds:
B1, B2, B3
